The nanobody polyreactivity screen of Harvey et al. (2022)

Assay: yeast display, Sf9 membrane polyspecificity reagent, FACS + sequencing; frameworks hold sequencing errors
Outline: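 In a synthetic yeast display library (Saccharomyces cerevisiae BJ5465), nanobody expression was induced with galactose for 36–48 hours. FACS gates were set low and high (top ~1%) using anti-HA fluorescence for expression and streptavidin fluorescence for binding of the Sf9 membrane reagent. Each polyreactivity label is drawn from the gate of origin.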

Sequence	polyreactivity (PSR sort gate)
QVQLVESGGGLVQAGGSLRLSCAASGSIFTNNAMGWYRQAPRKERELVAAISWSGGSTYYADSVKGRFTISRDNAKITVYLQMISLKPEDTAVSYCAARYLYYGGRPGYDSWGQGTQVTVSS	high polyreactivity
QVQLVESGGGLVQAGGSLRLSCAASGSIFTPNAMGWYRQAPGKERELVAAISRSGGSTYYADSVKGRFTISRDNAKNTVYLQMNSLKPEDTAVYYCAVDYRYYYRYTSGEYWGQGTQGTVSS	low polyreactivity
QVQLVESGGGLVQAGGSLRLSCAASGSIFTPNAMGWYRQAPGKERELVAAISSSSDRTYYADSVKGRFTISRDNAKNTVYLQMNSLKPEDTAVYYCAAYAQKRYYWGQGTQVTVSS	high polyreactivity
QVQLVESGGGLVQAGGSLRLSCAASGSIFTPNVMGWYRQAPGKERELVAAISQSGGSTFYADSVKGRFTISRDNAKNTVYLQMNSLKPEDTAVYYCATEYYGPVYDLDYDYWGQGTQVNVSS	low polyreactivity
QVQLVESGGGLVQAGGSLRLSCAASGSIFTPYAMGWYRQAPGKERELVAAISSDGSTYYADSVKGRFTISRDNAKNTVYLQMNSLKTEDTAVYYCAAEYSWYYYYLFVGEYDYWGQGTQVTVSS	low polyreactivity
QVQLVESGGGLVQAGGSLRLSCAASGSIFTPYAMGWYRQAPGKERELVAAISYSGGSTYYADSVKGRFTISRDNAKNTVYLQMNSLKPEDTAVYYCATDGYVYTPFDDDEDYWGQGTQVTVSS	low polyreactivity
QVQLVESGGGLVQAGGSLRLSCAASGSIFTPYAMGWYRQAPGKERELVATISWSGGRTYYADSVKGRFTISRDNAKNTVYLQMNSLKPEDTAVYYCNADVLKYKFDYWGQGTQVTVSS	high polyreactivity
QVQLVESGGGLVQAGGSLRLSCAASGSIFTPYAMGWYRQAPGKEWELVAAISWRGCNTYYADSVKGRFTISRDNAKNTVYLQMNSLKPEDTAVYYCAAEQNYVYETGSYDYWGQGTQVTVSS	low polyreactivity
QVQLVESGGGLVQAGGSLRLSCAASGSIFTQNAMGWYRQAPGKERELVAGISDGDSTNYADSVKGRFTISRDNAKNTVYLQMNSLKPEDTAVYYCNAQGTTETSGGGFFRGMDYWGQGTQVTVSS	low polyreactivity
QVQLVESGGGLVQAGGSLRLSCAASGSIFTQYAMGWSRQAPGKERELVAVITTGSSTYYADSVKRRFTISRDNAKNTVYLQMNSLKPEDTSVYYCAVRTATRSPRRYGYWGQGTQVTVSS	high polyreactivity
QVQLVESGGGLVQAGGSLRLSCAASGSIFTQYAMGWYRQAPGKERELVAAISWTGGRTNYADSVKGRFTISRDTAKNTFYLQMNSLKPEDTSVYYCAATYLLRYCQGWKRMDYWGQGTQVTVSS	high polyreactivity
QVQLVESGGGLVQAGGSLRLSCAASGSIFTRNAMGWSRQAPGKEREFVAAISSSGVSTYYADSVKGRFTISRDNAKNTVYLQMNSLKPEDTAVYYCAARWGTKSGRYDYWGQGTQVTVSS	high polyreactivity
QVQLVESGGGLVQAGGSLRLSCAASGSIFTRNAMGWYRPAPGKERELVAAISRRGVSTYYADSVKGRFTTSRDNAKNTVYLQMNSLKPEDTAVYYCNKLSSYVVARRTTEYDYWGQGTQVTVSS	high polyreactivity
QVQLVESGGGLVQAGGSLRLSCAASGSIFTRNVMGWSRQAPGKERELVAAITGSGGRTYYADSVKGRFTISRDNAKNTVYLQMNSLKPEDTAVYYCAKSRPGTYDYWGQGTQVTVSS	high polyreactivity
QVQLVESGGGLVQAGGSLRLSCAASGSIFTRYAMGWYRQAPGKDRELDADIRWGGGDTYYADSVKGRFTNSRDNAKNTVYLQMNSLTPEDTAVYYCNADHTFIKYYPDWGDYGRDYDYWGQGTQVTVSS	low polyreactivity
QVQLVESGGGLVQAGGSLRLSCAASGSIFTRYAMGWYRQAPGKERELVAAITASGGRTYYADSVKGRFTISRDNAKNTVYLQMNSLKPEDTAVYYCNTYWRYTSQLPYDYWGQGTQVTVSS	high polyreactivity
QVQLVESGGGLVQAGGSLRLSCAASGSIFTRYAMGWYRQAPGKERELVAAITKSGSRTYYADSVKGRFTISRDNAKNTVYLQMNSLKPEDTAVYYCAVKFYLPRTRGGYWGQGTQVTVSS	high polyreactivity
QVQLVESGGGLVQAGGSLRLSCAASGSIFTRYAMGWYRQAPGKERELVATISKRSGSTYYADSVKGRFTISRDNAKNTVYLQMISLKPEDTAVYYCAARNSGRVKYGYWGQGSQVTVSS	high polyreactivity
QVQLVESGGGLVQAGGSLRLSCAASGSIFTRYAMGWYRQAPGKERELVAVISVSGGRTYYADSVKGRFTISRDNAKNTVYLQMNSLKPEDTAVYYCATDYYRPALDYWGQGTQVTVSS	high polyreactivity
QVQLVESGGGLVQAGGSLRLSCAASGSIFTSNAMGWYRQAPGKEWELVAAITSDGAITYADSVKRRFTISRDNAKNTVYLQMNTLKPEDTAVYYCAARIRQNPGGDNSWGQGTQVTVSS	low polyreactivity
QVQLVESGGGLVQAGGSLRLSCAASGSIFTVNTMGWYRQAPGKERELVATISKRGGRTYYADSVKGRFTISRDNAKNTVYLQMNSLKPEDTAVYYCNRVASGYPVGTSIDYGYWGQGTQVTVSS	high polyreactivity
QVQLVESGGGLVQAGGSLRLSCAASGSIFTWNGMGWYRQAPGKERELVAAISNGASTNYAESVKGRFTISRDNAKNTVYLQMNSLKPEDTAVYYCAAKSTGRYDYWGQGTQVTVSS	low polyreactivity

Sequence	polyreactivity (PSR sort gate)
QVQLVESGGGLVQAGGSLRLSCAASGSIFTWYAMGWYRQAPGKERELVARINVSAGITYYADSVKGRFTISRDNAKNTVYLQMNSLKPEDTAVYYCAATGWRRPKHNYWGQGTQVTVSS	low polyreactivity
QVQLVESGGGLVQAGGSLRLSCAASGSIFTWYAMGWYRQAPGTERELVAAITRGGSTYADSVKGRFTISRDNAKNTVYLQMNSLKPEDTAVYYCNAVYGVYDFNYWGQGTQVTVSS	low polyreactivity
QVQLVESGGGLVQAGGSLRLSCAASGSIFTYKAMGWYRQAPGKERELVAAIRQRGGSTYYADSVKGRFTISRDNAKNTVYLQKNSLKPEDTAVYYCAARGSYVRSYYYYWGQGTQVTVSS	high polyreactivity
QVQLVESGGGLVQAGGSLRLSCAASGSIFTYNAMGWYRQAPGKDRELVAAIRLSGGSTYYADSVKGRFTISRDNAKNTVYLQMTSLNPEDTAVYYCAAESAAASGVYSVEYDYWGQGTQVTVSS	low polyreactivity
QVQLVESGGGLVQAGGSLRLSCAASGSIFTYNAMGWYRQAPGKERELVAAINTSGSTNYADSVKGRFTISRDNAKNTVYLQMNSLKPEDTAVYYCAAGIVVTGYAYWGQGTQVTVSA	low polyreactivity
QVQLVESGGGLVQAGGSLRLSCAASGSIFTYNVMGWYRQAPGKERELVDAISWDGDSTYYSDSVKGRFTISRDNEKNTVYLQMKSLKQDDTAVYYCAADVHEKFQYDYWGQGNQVTVSS	high polyreactivity
QVQLVESGGGLVQAGGSLRLSCAASGSIFTYYAMGWYRQATRKERELLADIRWSVGSTYYADSVKGRFTISRDNAKNTVYLQMNSLKPEDTAVYYCNAVVYIYYLTSYKYGNDSWGQGTQVTVSS	low polyreactivity
QVQLVESGGGLVQAGGSLRLSCAASGSIFTYYTMAWYRQAPGTERELVAAINGRGHSTYYADSVKGRFTISRDNAKNTVYLQMKSLKSEDTAVYYCKALGSLDGRYGYWGQGTQVTVSS	high polyreactivity
QVQLVESGGGLVQAGGSLRLSCAASGSIFVAYDMGWYRQAPGKERELVAAINFDGTSTYYADSVKGRFTISRDNAKNTVYLQMNSLKPEETAVYYCNNRVSPTYKGQYEYWGQGTQVTVSS	low polyreactivity
QVQLVESGGGLVQAGGSLRLSCAASGSIFVDYTMGWYRQAPGKERELVAAITYRGTRTYYADSVKGRFTISRDNAKNTVYLQMNSLKPEDTAVYYCNKLYRRYPVPREYDYWGQGTQVSVSS	high polyreactivity
QVQLVESGGGLVQAGGSLRLSCAASGSIFVDYVMVWYRQAPGKERELVAAISGNGGRTYYADSVKGRFTISRDNAKNTVYLQMNSLKPEDTAVYYCAKVRSVTIGRDYWGQGTQVTVSS	high polyreactivity
QVQLVESGGGLVQAGGSLRLSCAASGSIFVFNAMGWYRQAPGKERELVAAITSGGRTYYADSVKGRFTISRDNAKNTVYLQMNSLKPEDTAVYYCAAEFWFFAGWAYEYWGQGTQVTVSS	high polyreactivity
QVQLVESGGGLVQAGGSLRLSCAASGSIFVFNAMGWYRQAPGKERELVADITRRGGSTYYADSVKGRFTISRDNAKNTVYLQMNSLKPEDTAVYYCAAANPRDHRGANDYWGQGTQVTVSS	high polyreactivity
QVQLVESGGGLVQAGGSLRLSCAASGSIFVFYAMGWYRQAPGKEREFVAAMSISGGRTYYADSVKGRFTISRDIAKNTVYLQMNSLKPEDTAVYYCAASRVYTSITLYYWGQGTQVTVSS	high polyreactivity
QVQLVESGGGLVQAGGSLRLSCAASGSIFVGKAMGWYRQAPGKERELVAAISSSGGRTYYADSVKGRFTISRDNAKNTVYLQMNSLKPEDTAVYYCAADVSYKVKSWSVYRYEYWGQGTQVTVSS	high polyreactivity
QVQLVESGGGLVQAGGSLRLSCAASGSIFVGNAMGWYRQAPGKERELVAAISSSGGRTFYADSVKWRFTISRDNAKNTVYLQMNSLKPEDTAVYYCAAVYTHWQQRMDYWGQGTQVTVSS	high polyreactivity
QVQLVESGGGLVQAGGSLRLSCAASGSIFVGNAMGWYRQAPGTERELVAAISSSGGSTYSADSVKGRFTISRDNAKNTVYLQMNSLKPEDTAVYYCAADTYSTSGYYYWGQGTQVTVSS	low polyreactivity
QVQLVESGGGLVQAGGSLRLSCAASGSIFVGNGMGWYRQAPGKERELVAAITFRSGSTYYADSVKGRFTISRDNAKNTVYFQMISMKPEDTAVSYCAADEYYQVYAYDYCGQGTQVTVSS	low polyreactivity
QVQLVESGGGLVQAGGSLRLSCAASGSIFVGNVMGWYRQAPGKERELVAAIRFSGGNTYYADSVKGRFTISRDNAKNTVYLQMNSLKPEDTAVYYCAARYGQGSYPTKYYYWGQGTQVTVSS	high polyreactivity
QVQLVESGGGLVQAGGSLRLSCAASGSIFVGYAMGWYRQAPGKEREFVAAISQRGTRTYYADSVKGRFTISRDNAKNTVYLQMNSLKPEDTAVYYCAARGWDQRSDYWGQGTQVIVSS	high polyreactivity
QVQLVESGGGLVQAGGSLRLSCAASGSIFVGYAMGWYRQAPGKERELVAAISSNGGSTYYADSVKGRFTISRDNAKNTVYLQMNSLKPEDTAVYYCAAGVRRVYASGHGAYGYWGQGTQVTVSS	low polyreactivity
